Experimental data reported in paper PMC10039935, “Organic electrochemical transistors as on-site signal amplifiers for electrochemical aptamer-based sensing”.

Target: TGF-β1 (transforming growth factor beta 1) (UniProt P01137 279-390)
Assay: electrochemical aptamer sensor (CV/SWV, signal-off) with OECT readout; 1 mM MgCl2 in aptamer folding; aptamer on Au with MCH backfill; 1x PBS (selectivity test in bare 1x PBS); aptamer folded and MCH backfill in 1x PBS with 1 mM MgCl2; assay pH and temperature not stated
Conditions: chain copies: 2; label: 5' methylene blue; 3' thiol on Au electrode; single strand, folded

TGF-β1 (transforming growth factor beta 1), sequence (P01137 279-390): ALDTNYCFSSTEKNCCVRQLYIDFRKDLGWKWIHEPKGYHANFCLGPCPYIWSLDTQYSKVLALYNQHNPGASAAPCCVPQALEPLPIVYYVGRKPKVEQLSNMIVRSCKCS

B1: TGF-β1 aptamer (MB-modified) (XNA)
DNA: CGCTCGGCTTCACGAGATTCGTGTCGTTGTGTCCTGTACCCGCCTTGACCAGTCACTCTAGAGCATCCGGACTG
modifications: partial phosphorothioate, 5' side of some A and C, printed as * : CG*CTCGG*CTTC*ACG*AG*ATT*CGTGT*CGTTGTGT*C*CTGT*A*C*C*CG*C*CTTG*A*C*C*AGT*C*ACT*CT*AG*AGC*AT*C*CGG*A*CTG; 5' amino C6; 3' iSpC3 and thiol C3
**Q.** Does B1 bind?
**A.** Result: binds
